Patent publication US20140343124A1 (ROYAL INSTITUTION FOR THE ADVANCEMENT OF LEARNING MCGILL …, published 2014)

T1: MYC-LC2 (UniProt P78559 2567-2803, limits assumed)
T1 construct: domain: light chain (LC2) subunit; also called LC2 (heterologously expressed, MYC-tagged); not shown: MYC tag
T1 sequence (looked up): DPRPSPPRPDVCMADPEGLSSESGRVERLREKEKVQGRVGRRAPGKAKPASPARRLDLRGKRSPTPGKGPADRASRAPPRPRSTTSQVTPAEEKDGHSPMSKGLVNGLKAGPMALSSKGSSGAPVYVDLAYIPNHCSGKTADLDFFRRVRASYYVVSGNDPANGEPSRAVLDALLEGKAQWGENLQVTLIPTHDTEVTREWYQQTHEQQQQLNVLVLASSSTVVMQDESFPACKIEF


Assays:
[1] = biological target: actin (actin stress fibers / actin cytoskeleton of glioma cells); assay: cell-based or functional assay
[2] = biological target: T1, MYC-LC2; assay: co-immunoprecipitation of heterologously expressed proteins

Row | Molecule | fold decrease in invasiveness in a 3D invasion assay [1] | binding result [2]
1 | DRR^ΔPEPE (from UniProt O95990 1-144) | 3 fold | –
2 | DRR^ΔHRE (other, UniProt O95990 1-144, looked up, also called non-LC2 form of DRR) MYSEIQRERADIGGLMARPEYREWNPELIKPKKLLNPVKASRSHQELAAALLMNHRRGLGVDSKPELQRVLEHRRRNQLIKKKKEELEAKRLQCPFEQELLRRQQRLNQLEKPPEKEEDHAPEFIKVRENLRRIATLTSEEREL | – | no binding
